Data reported in US20180155451A1 (published 2018).

B1: GpH7-A5/GpH7-B3 variant A327_18N/GpL16-k0 (antibody, human IgG1, kappa)
heavy 1: not shown
heavy 2: not shown
light: DIVMTQSPLSLPVTPGEPASISCQASESLVHSNRNTYLHWYLQKPGQSPQLLIYKVSNRFSGVPDRFSGSGSGTDFTLKISRVEAEDVGVYYCSQNTHVPPTFGQGTKVEIERTVAAPSVFIFPPSDEQLKSGTASVVCLLNNFYPREAKVQWKVDNALQSGNSQESVTEQDSKDSTYSLSSTLTLSKADYEKHKVYACEVTHQGLSSPVTKSFNRGEC
notes: heterodimerized IgG1, mutation in one H chain only; also called He Ab
B2: GpH7-A5/GpH7-B3 variant K326_20W/GpL16-k0 (antibody, human IgG1, kappa)
heavy 1: not shown
heavy 2: not shown
light: DIVMTQSPLSLPVTPGEPASISCQASESLVHSNRNTYLHWYLQKPGQSPQLLIYKVSNRFSGVPDRFSGSGSGTDFTLKISRVEAEDVGVYYCSQNTHVPPTFGQGTKVEIERTVAAPSVFIFPPSDEQLKSGTASVVCLLNNFYPREAKVQWKVDNALQSGNSQESVTEQDSKDSTYSLSSTLTLSKADYEKHKVYACEVTHQGLSSPVTKSFNRGEC
notes: as for B1
B3: GpH7-A5/GpH7-B3 variant K334_10E/GpL16-k0 (antibody, human IgG1, kappa)
heavy 1: not shown
heavy 2: not shown
light: DIVMTQSPLSLPVTPGEPASISCQASESLVHSNRNTYLHWYLQKPGQSPQLLIYKVSNRFSGVPDRFSGSGSGTDFTLKISRVEAEDVGVYYCSQNTHVPPTFGQGTKVEIERTVAAPSVFIFPPSDEQLKSGTASVVCLLNNFYPREAKVQWKVDNALQSGNSQESVTEQDSKDSTYSLSSTLTLSKADYEKHKVYACEVTHQGLSSPVTKSFNRGEC
notes: as for B1
B4: GpH7-A5/GpH7-B3 variant A330_05P/GpL16-k0 (antibody, human IgG1, kappa)
heavy 1: not shown
heavy 2: not shown
light: DIVMTQSPLSLPVTPGEPASISCQASESLVHSNRNTYLHWYLQKPGQSPQLLIYKVSNRFSGVPDRFSGSGSGTDFTLKISRVEAEDVGVYYCSQNTHVPPTFGQGTKVEIERTVAAPSVFIFPPSDEQLKSGTASVVCLLNNFYPREAKVQWKVDNALQSGNSQESVTEQDSKDSTYSLSSTLTLSKADYEKHKVYACEVTHQGLSSPVTKSFNRGEC
notes: as for B1
B5: GpH7-A5/GpH7-B3 variant L328_04F/GpL16-k0 (antibody, human IgG1, kappa)
heavy 1: not shown
heavy 2: not shown
light: DIVMTQSPLSLPVTPGEPASISCQASESLVHSNRNTYLHWYLQKPGQSPQLLIYKVSNRFSGVPDRFSGSGSGTDFTLKISRVEAEDVGVYYCSQNTHVPPTFGQGTKVEIERTVAAPSVFIFPPSDEQLKSGTASVVCLLNNFYPREAKVQWKVDNALQSGNSQESVTEQDSKDSTYSLSSTLTLSKADYEKHKVYACEVTHQGLSSPVTKSFNRGEC
notes: as for B1
B6: GpH7-A5/GpH7-B3 variant K334_12R/GpL16-k0 (antibody, human IgG1, kappa)
heavy 1: not shown
heavy 2: not shown
light: DIVMTQSPLSLPVTPGEPASISCQASESLVHSNRNTYLHWYLQKPGQSPQLLIYKVSNRFSGVPDRFSGSGSGTDFTLKISRVEAEDVGVYYCSQNTHVPPTFGQGTKVEIERTVAAPSVFIFPPSDEQLKSGTASVVCLLNNFYPREAKVQWKVDNALQSGNSQESVTEQDSKDSTYSLSSTLTLSKADYEKHKVYACEVTHQGLSSPVTKSFNRGEC
notes: as for B1
B7: GpH7-A5/GpH7-B3 variant L328_10E/GpL16-k0 (antibody, human IgG1, kappa)
heavy 1: not shown
heavy 2: not shown
light: DIVMTQSPLSLPVTPGEPASISCQASESLVHSNRNTYLHWYLQKPGQSPQLLIYKVSNRFSGVPDRFSGSGSGTDFTLKISRVEAEDVGVYYCSQNTHVPPTFGQGTKVEIERTVAAPSVFIFPPSDEQLKSGTASVVCLLNNFYPREAKVQWKVDNALQSGNSQESVTEQDSKDSTYSLSSTLTLSKADYEKHKVYACEVTHQGLSSPVTKSFNRGEC
notes: as for B1
B8: GpH7-A5/GpH7-B3 variant K334_05P/GpL16-k0 (antibody, human IgG1, kappa)
heavy 1: not shown
heavy 2: not shown
light: DIVMTQSPLSLPVTPGEPASISCQASESLVHSNRNTYLHWYLQKPGQSPQLLIYKVSNRFSGVPDRFSGSGSGTDFTLKISRVEAEDVGVYYCSQNTHVPPTFGQGTKVEIERTVAAPSVFIFPPSDEQLKSGTASVVCLLNNFYPREAKVQWKVDNALQSGNSQESVTEQDSKDSTYSLSSTLTLSKADYEKHKVYACEVTHQGLSSPVTKSFNRGEC
notes: as for B1
B9: GpH7-A5/GpH7-B3 variant L328_15Y/GpL16-k0 (antibody, human IgG1, kappa)
heavy 1: not shown
heavy 2: not shown
light: DIVMTQSPLSLPVTPGEPASISCQASESLVHSNRNTYLHWYLQKPGQSPQLLIYKVSNRFSGVPDRFSGSGSGTDFTLKISRVEAEDVGVYYCSQNTHVPPTFGQGTKVEIERTVAAPSVFIFPPSDEQLKSGTASVVCLLNNFYPREAKVQWKVDNALQSGNSQESVTEQDSKDSTYSLSSTLTLSKADYEKHKVYACEVTHQGLSSPVTKSFNRGEC
notes: as for B1

Key:
FcγRIIb = molecular target: T1, FcγRIIb (human, UniProt P31994 43-217); test: SPR (Biacore), relative binding vs GpH7-A5/GpH7-B3/GpL16-k0
T1 construct: extracellular domain; also called 2b
T1 sequence (looked up): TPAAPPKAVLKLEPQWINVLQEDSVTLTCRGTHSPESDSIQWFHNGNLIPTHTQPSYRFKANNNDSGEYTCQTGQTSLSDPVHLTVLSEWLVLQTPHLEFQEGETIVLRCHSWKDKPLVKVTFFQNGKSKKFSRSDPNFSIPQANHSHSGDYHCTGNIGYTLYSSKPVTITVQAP
Method: (§1) The heterodimerized antibodies He Abs in which one of the H chains was introduced with an alteration were assayed for their binding activities to each activating FcγR and inhibitory FcγR according to the method described in Example 4. […] The activating FcγRs in FIGS. 26, 27, 28, and 29 are FcγRIa, FcγRIIa (R), FcγRIIa (H), and FcγRIIIa, respectively.
(§2) Analysis of interaction between objective antibody and the FcγR was carried out using Biacore T100 (GE Healthcare). HBS-EP+ (GE Healthcare) was used as the running buffer, and the measurement temperature was set to 25° C. Chips produced by immobilizing the antigen peptide by the amine coupling method to a Series S Sencor Chip CM5 (GE Healthcare), or alternatively, chips produced by allowing preliminarily biotinylated antigen peptides to interact with and immobilize onto a Series S Sensor Chip SA (certified) (GE Healthcare) were used. Antibodies of interest were captured onto an antigen peptide-immobilized chip, and allowed to interact to each FcγR diluted with running buffer. To regenerate and repeatedly use the chip, the antibodies captured on the chip were washed off by reacting 10 mM glycine-HCl, pH 1.5.

FcγRIIa H = molecular target: T2, FcγRIIa H (human, UniProt P12318 34-217); test: as above
T2 construct: extracellular domain; also called FcγRIIa type H; 2aH
T2 sequence (looked up): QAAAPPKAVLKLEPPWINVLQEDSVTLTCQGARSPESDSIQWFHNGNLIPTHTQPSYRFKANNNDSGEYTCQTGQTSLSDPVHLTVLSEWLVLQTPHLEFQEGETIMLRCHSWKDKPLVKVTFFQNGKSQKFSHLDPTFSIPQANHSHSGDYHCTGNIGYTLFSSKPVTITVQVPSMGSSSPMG
Method: as §1, §2

Row | Binder | He/Con_2b (FcγRIIb) | He/Con_2aH (FcγRIIa H)
1 | B1 | 113 % of control He Ab (=100) | 66.8 % of control He Ab (=100)
2 | B2 | 148 % of control He Ab (=100) | 83.3 % of control He Ab (=100)
3 | B3 | 114 % of control He Ab (=100) | 98.2 % of control He Ab (=100)
4 | B4 | 137 % of control He Ab (=100) | 85.7 % of control He Ab (=100)
5 | B5 | 219 % of control He Ab (=100) | 71.7 % of control He Ab (=100)
6 | B6 | 111 % of control He Ab (=100) | 99.7 % of control He Ab (=100)
7 | B7 | 172 % of control He Ab (=100) | 55.5 % of control He Ab (=100)
8 | B8 | 105 % of control He Ab (=100) | 97.6 % of control He Ab (=100)
9 | B9 | 193 % of control He Ab (=100) | 90 % of control He Ab (=100)
